Measured values: patent publication US20210388087A1 (Chugai, published 2021)
Numbering of substitutions follows the chain as printed.

B1: CE115HA000 H35A (antibody, human IgG1, kappa, L234A L235A, N297A, name in Kabat numbering)
heavy: QVQLVESGGGVVQPGRSLRLSCAASGFTFSNAWMAWVRQAPGKGLEWVAQIKAKSNNYATYYAESVKGRFTISRDDSKNSLYLQMNSLKTEDTAVYYCRYVHYGAYYGVDAWGQGTTVTVSSASTKGPSVFPLAPSSKSTSGGTAALGCLVKDYFPEPVTVSWNSGALTSGVHTFPAVLQSSGLYSLSSVVTVPSSSLGTQTYICNVNHKPSNTKVDKKVEPKSCDKTHTCPPCPAPEAAGGPSVFLFPPKPKDTLMISRTPEVTCVVVDVSHEDPEVKFNWYVDGVEVHNAKTKPREEQYASTYRVVSVLTVLHQDWLNGKEYKCKVSNKALPAPIEKTISKAKGQPREPQVYTLPPSRCELTKNQVSLSCAVKGFYPSDIAVEWESNGQPENNYKTTPPVLDSDGSFFLVSKLTVDKSRWQQGNVFSCSVMHEALHNHYTQKSLSLSPDYKDDDDK
chain: EPKSSDKTHTCPPCPAPELLGGPSVFLFPPKPKDTLMISRTPEVTCVVVDVSHEDPEVKFNWYVDGVEVHNAKTKPREEQYNSTYRVVSVLTVLHQDWLNGKEYKCKVSNKALPAPIEKTISKAKGQPREPQVCTLPPSRDELTKNQVSLWCLVKGFYPSDIAVEWESNGQPENNYKTTPPVLDSDGSFFLYSKLTVDKSRWQQGNVFSCSVMHEALHNRYTQKSLSLSP
light: DIVMTQSPLSLPVTPGEPASISCRSSQSLVHSNRNTYLHWYQQKPGQAPRLLIYKVSNRFSGVPDRFSGSGSGTDFTLKISRVEAEDVGVYYCGQGTQVPYTFGQGTKLEIKRTVAAPSVFIFPPSDEQLKSGTASVVCLLNNFYPREAKVQWKVDNALQSGNSQESVTEQDSKDSTYSLSSTLTLSKADYEKHKVYACEVTHQGLSSPVTKSFNRGEC
notes: one-arm antibody
B2: CE115HA000 A56Y (antibody, human IgG1, kappa, L234A L235A, N297A, name in Kabat numbering)
heavy: B1 heavy with A35H, A59Y
chain: B1 chain
light: B1 light
notes: one-arm antibody
B3: CE115HA000 A32Y (antibody, human IgG1, kappa, L234A L235A, N297A, name in Kabat numbering)
heavy: B1 heavy with A32Y, A35H
chain: B1 chain
light: B1 light
notes: one-arm antibody
B4: CE115HA000 A99S (antibody, human IgG1, kappa, L234A L235A, N297A, name in Kabat numbering)
heavy: B1 heavy with A35H, A105S
chain: B1 chain
light: B1 light
notes: one-arm antibody
B5: CE115HA000 A52aG (antibody, human IgG1, kappa, L234A L235A, N297A, name in Kabat numbering)
heavy: B1 heavy with A35H, A53G
chain: B1 chain
light: B1 light
notes: one-arm antibody
B6: CE115HA000 A56N (antibody, human IgG1, kappa, L234A L235A, N297A, name in Kabat numbering)
heavy: B1 heavy with A35H, A59N
chain: B1 chain
light: B1 light
notes: one-arm antibody
B7: CE115HA000 A52aV (antibody, human IgG1, kappa, L234A L235A, N297A, name in Kabat numbering)
heavy: B1 heavy with A35H, A53V
chain: B1 chain
light: B1 light
notes: one-arm antibody
B8: CE115HA000 A56Q (antibody, human IgG1, kappa, L234A L235A, N297A, name in Kabat numbering)
heavy: B1 heavy with A35H, A59Q
chain: B1 chain
light: B1 light
notes: one-arm antibody
B9: CE115HA000 A99F (antibody, human IgG1, kappa, L234A L235A, N297A, name in Kabat numbering)
heavy: B1 heavy with A35H, A105F
chain: B1 chain
light: B1 light
notes: one-arm antibody
B10: CE115HA000 A56D (antibody, human IgG1, kappa, L234A L235A, N297A, name in Kabat numbering)
heavy: B1 heavy with A35H, A59D
chain: B1 chain
light: B1 light
notes: one-arm antibody
B11: CE115HA000 A52aE (antibody, human IgG1, kappa, L234A L235A, N297A, name in Kabat numbering)
heavy: B1 heavy with A35H, A53E
chain: B1 chain
light: B1 light
notes: one-arm antibody
B12: CE115HA000 A102P (antibody, human IgG1, kappa, L234A L235A, N297A, name in Kabat numbering)
heavy: B1 heavy with A35H, A111P
chain: B1 chain
light: B1 light
notes: one-arm antibody
B13: CE115HA000 A99K (antibody, human IgG1, kappa, L234A L235A, N297A, name in Kabat numbering)
heavy: B1 heavy with A35H, A105K
chain: B1 chain
light: B1 light
notes: one-arm antibody
B14: CE115HA000 A99T (antibody, human IgG1, kappa, L234A L235A, N297A, name in Kabat numbering)
heavy: B1 heavy with A35H, A105T
chain: B1 chain
light: B1 light
notes: one-arm antibody
B15: CE115HA000 A56L (antibody, human IgG1, kappa, L234A L235A, N297A, name in Kabat numbering)
heavy: B1 heavy with A35H, A59L
chain: B1 chain
light: B1 light
notes: one-arm antibody
B16: CE115HA000 A52aS (antibody, human IgG1, kappa, L234A L235A, N297A, name in Kabat numbering)
heavy: B1 heavy with A35H, A53S
chain: B1 chain
light: B1 light
notes: one-arm antibody
B17: CE115HA000 A56K (antibody, human IgG1, kappa, L234A L235A, N297A, name in Kabat numbering)
heavy: B1 heavy with A35H, A59K
chain: B1 chain
light: B1 light
notes: one-arm antibody
B18: CE115HA000 A52aY (antibody, human IgG1, kappa, L234A L235A, N297A, name in Kabat numbering)
heavy: B1 heavy with A35H, A53Y
chain: B1 chain
light: B1 light
notes: one-arm antibody
B19: CE115HA000 A56G (antibody, human IgG1, kappa, L234A L235A, N297A, name in Kabat numbering)
heavy: B1 heavy with A35H, A59G
chain: B1 chain
light: B1 light
notes: one-arm antibody
B20: CE115HA000 A99Y (antibody, human IgG1, kappa, L234A L235A, N297A, name in Kabat numbering)
heavy: B1 heavy with A35H, A105Y
chain: B1 chain
light: B1 light
notes: one-arm antibody
B21: CE115HA000 A60D (antibody, human IgG1, kappa, L234A L235A, N297A, name in Kabat numbering)
heavy: B1 heavy with A35H, A63D
chain: B1 chain
light: B1 light
notes: one-arm antibody
B22: CE115HA000 A52aD (antibody, human IgG1, kappa, L234A L235A, N297A, name in Kabat numbering)
heavy: B1 heavy with A35H, A53D
chain: B1 chain
light: B1 light
notes: one-arm antibody
B23: CE115HA000 A99L (antibody, human IgG1, kappa, L234A L235A, N297A, name in Kabat numbering)
heavy: B1 heavy with A35H, A105L
chain: B1 chain
light: B1 light
notes: one-arm antibody
B24: CE115HA000 A99Q (antibody, human IgG1, kappa, L234A L235A, N297A, name in Kabat numbering)
heavy: B1 heavy with A35H, A105Q
chain: B1 chain
light: B1 light
notes: one-arm antibody
B25: CE115HA000 A99D (antibody, human IgG1, kappa, L234A L235A, N297A, name in Kabat numbering)
heavy: B1 heavy with A35H, A105D
chain: B1 chain
light: B1 light
notes: one-arm antibody
B26: CE115HA000 A60E (antibody, human IgG1, kappa, L234A L235A, N297A, name in Kabat numbering)
heavy: B1 heavy with A35H, A63E
chain: B1 chain
light: B1 light
notes: one-arm antibody
B27: CE115HA000 A52aP (antibody, human IgG1, kappa, L234A L235A, N297A, name in Kabat numbering)
heavy: B1 heavy with A35H, A53P
chain: B1 chain
light: B1 light
notes: one-arm antibody
B28: CE115HA000 A102I (antibody, human IgG1, kappa, L234A L235A, N297A, name in Kabat numbering)
heavy: B1 heavy with A35H, A111I
chain: B1 chain
light: B1 light
notes: one-arm antibody
B29: CE115HA000 Y100aG one-arm antibody (antibody, human IgG1, kappa, L234A L235A, N297A, name in Kabat numbering)
heavy: B1 heavy with A35H, Y107G
chain: B1 chain
light: B1 light
B30: CE115HA000 Y100aL one-arm antibody (antibody, human IgG1, kappa, L234A L235A, N297A, name in Kabat numbering)
heavy: B1 heavy with A35H, Y107L
chain: B1 chain
light: B1 light
B31: CE115HA000 Y100aQ one-arm antibody (antibody, human IgG1, kappa, L234A L235A, N297A, name in Kabat numbering)
heavy: B1 heavy with A35H, Y107Q
chain: B1 chain
light: B1 light
B32: CE115HA000 Y100aS one-arm antibody (antibody, human IgG1, kappa, L234A L235A, N297A, name in Kabat numbering)
heavy: B1 heavy with A35H, Y107S
chain: B1 chain
light: B1 light
B33: CE115HA000 Y100aK one-arm antibody (antibody, human IgG1, kappa, L234A L235A, N297A, name in Kabat numbering)
heavy: B1 heavy with A35H, Y107K
chain: B1 chain
light: B1 light

Target: T1, CD3 epsilon homodimer protein (UniProt P07766 23-126)
T1 construct: also called CD3 (CD3 epsilon)
Test: SPR, CD3 epsilon homodimer on chip, one-arm antibody as analyte;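 note: surface plasmon resonance at 25 °C with CD3 epsilon homodimer amine-coupled to a CM4 sensor chip, antibody injected as analyte, HBS-EP+ as running buffer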
T1 sequence (P07766 23-126): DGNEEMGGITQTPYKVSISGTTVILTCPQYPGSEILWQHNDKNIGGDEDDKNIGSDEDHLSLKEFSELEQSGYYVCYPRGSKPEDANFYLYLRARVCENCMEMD

KD ratio (KD of CE115HA000/KD of altered form)	Binder
25	B1
0.63	B2
2.11	B3
0.76	B4
0.61	B5
0.84	B6
0.95	B7
0.74	B8
1.15	B9
0.71	B10
0.89	B11
3.51	B12
1.4	B13
0.93	B14
0.77	B15
0.82	B16
1.32	B17
7.71	B18
0.59	B19
1.25	B20
0.94	B21
1.35	B22
1	B23
0.85	B24
1.03	B25
0.88	B26
5	B27
1.29	B28

Target: T2, CD3 epsilon homodimer protein (UniProt P07766 23-126)
T2 construct: immobilized on Sensor chip CM4 by amine coupling; also called CD3 (CD3 epsilon)
Test: SPR (Biacore T200), CD3 epsilon homodimer on CM4 chip, one-arm antibody as analyte, 25 C;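 note: homodimer attached to the sensor surface via amine coupling, HBS-EP+ used as running buffer during binding runs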
T2 sequence (P07766 23-126): as above

ratio of amounts bound (altered form / CE115HA000)	Binder
1.23	B29
0.48	B30
0.56	B31
0.64	B32
0.9	B33
